Tests used:
MBP-dPPR-nad7-Δ = target: T1, MBP-dPPR-nad7-Δ (synthetic construct (13 P-type PPR …)); experiment: EMSA
T1 chain: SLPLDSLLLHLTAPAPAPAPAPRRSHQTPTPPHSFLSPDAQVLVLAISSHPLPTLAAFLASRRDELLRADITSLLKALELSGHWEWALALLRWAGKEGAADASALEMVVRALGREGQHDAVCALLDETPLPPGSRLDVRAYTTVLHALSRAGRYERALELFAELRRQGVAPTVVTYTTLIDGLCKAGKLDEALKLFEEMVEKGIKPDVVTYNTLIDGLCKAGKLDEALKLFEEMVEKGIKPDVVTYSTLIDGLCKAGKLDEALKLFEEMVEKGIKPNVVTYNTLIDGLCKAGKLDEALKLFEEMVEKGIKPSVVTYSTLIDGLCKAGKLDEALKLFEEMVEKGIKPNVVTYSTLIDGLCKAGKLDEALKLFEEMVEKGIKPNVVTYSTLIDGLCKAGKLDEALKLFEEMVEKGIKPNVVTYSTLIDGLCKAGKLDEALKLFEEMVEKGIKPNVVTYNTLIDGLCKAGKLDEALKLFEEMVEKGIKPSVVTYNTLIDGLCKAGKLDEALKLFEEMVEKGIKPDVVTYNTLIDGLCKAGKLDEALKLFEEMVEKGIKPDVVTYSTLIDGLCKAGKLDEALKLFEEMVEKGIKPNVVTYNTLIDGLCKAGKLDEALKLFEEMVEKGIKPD

MBP-dPPR-nad7-DYW = target: T2, MBP-dPPR-nad7-DYW (synthetic construct (13 P-type PPR …)); experiment: EMSA
T2 chain: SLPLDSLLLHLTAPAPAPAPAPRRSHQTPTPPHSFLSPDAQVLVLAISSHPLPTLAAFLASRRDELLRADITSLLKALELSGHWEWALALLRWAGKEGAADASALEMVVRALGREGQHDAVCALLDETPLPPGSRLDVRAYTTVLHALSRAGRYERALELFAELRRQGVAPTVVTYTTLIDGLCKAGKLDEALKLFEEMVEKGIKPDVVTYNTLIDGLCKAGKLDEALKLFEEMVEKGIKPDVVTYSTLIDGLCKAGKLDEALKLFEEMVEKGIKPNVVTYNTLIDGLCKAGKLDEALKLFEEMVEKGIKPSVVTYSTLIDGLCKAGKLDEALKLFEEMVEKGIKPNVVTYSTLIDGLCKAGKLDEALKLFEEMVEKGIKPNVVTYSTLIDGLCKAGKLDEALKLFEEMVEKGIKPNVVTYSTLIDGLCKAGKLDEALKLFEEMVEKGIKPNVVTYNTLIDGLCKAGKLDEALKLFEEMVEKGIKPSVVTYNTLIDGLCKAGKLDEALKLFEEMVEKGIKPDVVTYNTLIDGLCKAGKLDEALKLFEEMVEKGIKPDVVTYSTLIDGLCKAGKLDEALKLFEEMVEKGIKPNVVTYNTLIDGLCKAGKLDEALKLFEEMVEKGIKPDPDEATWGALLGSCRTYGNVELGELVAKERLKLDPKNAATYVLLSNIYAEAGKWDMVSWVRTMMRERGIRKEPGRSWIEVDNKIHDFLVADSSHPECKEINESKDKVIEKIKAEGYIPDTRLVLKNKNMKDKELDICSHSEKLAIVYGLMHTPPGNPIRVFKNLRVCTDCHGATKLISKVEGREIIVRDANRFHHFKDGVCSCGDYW

## CUUUUGAAUUGCGAGGUACCAUUACGAG (ssRNA) [nad7 control]
MBP-dPPR-nad7-Δ
  binding result: no binding
MBP-dPPR-nad7-DYW
  binding result: no binding
